Results reported in publication PMC9482650, “Quantitative fragmentomics allow affinity mapping of interactomes” (Nature Communications, 2022).

T1: DVL3, Q92997
T1 sequence (Q92997 244-331, limits assumed, looked up): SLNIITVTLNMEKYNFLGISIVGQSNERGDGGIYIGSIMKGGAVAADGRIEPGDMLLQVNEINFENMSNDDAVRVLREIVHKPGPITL

T2: SHANK1, Q9Y566
T2 sequence (Q9Y566 658-767, limits assumed, looked up): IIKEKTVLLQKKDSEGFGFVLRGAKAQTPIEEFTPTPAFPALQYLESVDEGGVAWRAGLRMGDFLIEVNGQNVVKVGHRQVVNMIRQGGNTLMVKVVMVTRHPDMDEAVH

T3: NHERF3_4, Q5T2W1
T3 sequence (Q5T2W1 373-468, limits assumed, looked up): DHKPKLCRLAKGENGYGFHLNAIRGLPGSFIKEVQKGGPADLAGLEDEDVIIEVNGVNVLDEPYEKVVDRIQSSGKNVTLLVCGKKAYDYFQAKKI

T4: DLG3_2, Q92796
T4 sequence (Q92796 221-321, limits assumed, looked up): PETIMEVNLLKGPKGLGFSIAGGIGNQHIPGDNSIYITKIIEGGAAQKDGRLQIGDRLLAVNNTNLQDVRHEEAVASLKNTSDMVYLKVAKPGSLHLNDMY

T5: APBA2_1, Q99767
T5 sequence (Q99767 563-664, limits assumed, looked up): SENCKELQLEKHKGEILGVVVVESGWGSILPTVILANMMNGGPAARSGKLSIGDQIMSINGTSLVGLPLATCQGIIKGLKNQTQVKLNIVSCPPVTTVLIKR

T6: MPDZ_12, O75970
T6 sequence (O75970 1857-1958, limits assumed, looked up): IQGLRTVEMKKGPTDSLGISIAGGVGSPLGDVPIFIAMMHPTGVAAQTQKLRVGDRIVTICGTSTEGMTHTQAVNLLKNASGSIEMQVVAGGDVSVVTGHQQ

T7: SNTG2, Q9NY99
T7 sequence (Q9NY99 68-166, limits assumed, looked up): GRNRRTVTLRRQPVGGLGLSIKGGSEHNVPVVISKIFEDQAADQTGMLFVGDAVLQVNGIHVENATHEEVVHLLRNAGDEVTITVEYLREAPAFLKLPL

T8: DLG3_1, Q92796
T8 sequence (Q92796 125-227, limits assumed, looked up): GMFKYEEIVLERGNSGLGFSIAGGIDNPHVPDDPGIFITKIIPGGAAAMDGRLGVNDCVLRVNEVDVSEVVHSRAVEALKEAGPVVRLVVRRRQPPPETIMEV

T9: PARD3B_1, Q8TEW8
T9 sequence (Q8TEW8 196-299, limits assumed, looked up): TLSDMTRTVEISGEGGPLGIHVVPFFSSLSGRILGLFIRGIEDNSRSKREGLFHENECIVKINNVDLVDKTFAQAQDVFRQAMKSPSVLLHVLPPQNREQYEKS

T10: RHPN1, Q8TCX5
T10 sequence (Q8TCX5 508-602, limits assumed, looked up): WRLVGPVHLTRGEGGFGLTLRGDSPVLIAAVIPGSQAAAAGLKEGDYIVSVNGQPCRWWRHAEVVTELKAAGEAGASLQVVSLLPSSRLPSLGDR


molecular target: GORASP2, Q9H8Y8; assay: holdup assay; design: key: below the threshold = too weak to quantify, mostly under pKd 3.1 to 4; settings: plain residues with an end cap or a label only (N-terminal biotin on a linker: ado-ado)

| Binder | pKd |
| --- | --- |
| ADRDHASDQL [CTBP1, Q13363] | below the threshold |
| GSSSKEGTSV [RRBP1, Q9P2E9] | below the threshold |

molecular target: TJP1_2, Q07157; assay: holdup assay; design: key: below the threshold = too weak to quantify, mostly under pKd 3.1 to 4; settings: plain residues with an end cap or a label only (N-terminal biotin on a linker: ado-ado)
Sequence (Q07157 181-274): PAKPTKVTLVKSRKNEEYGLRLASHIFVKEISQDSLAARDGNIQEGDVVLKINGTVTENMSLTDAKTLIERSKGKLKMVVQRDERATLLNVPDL

| Binder | pKd |
| --- | --- |
| ADRDHASDQL [CTBP1, Q13363] | below the threshold |
| GSSSKEGTSV [RRBP1, Q9P2E9] | below the threshold |

molecular target: GRID2IP_2, A4D2P6; assay: holdup assay; design: key: below the threshold = too weak to quantify, mostly under pKd 3.1 to 4; settings: plain residues with an end cap or a label only (N-terminal biotin on a linker: ado-ado)
Sequence (A4D2P6 272-370): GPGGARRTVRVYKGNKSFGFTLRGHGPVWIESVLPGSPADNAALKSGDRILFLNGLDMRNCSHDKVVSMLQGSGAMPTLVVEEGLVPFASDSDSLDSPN

| Binder | pKd |
| --- | --- |
| ADRDHASDQL [CTBP1, Q13363] | below the threshold |
| GSSSKEGTSV [RRBP1, Q9P2E9] | 3.76 |

molecular target: T1, DVL3, Q92997; assay: holdup assay; design: key: below the threshold = too weak to quantify, mostly under pKd 3.1 to 4; settings: plain residues with an end cap or a label only (N-terminal biotin on a linker: ado-ado)

| Binder | pKd |
| --- | --- |
| ADRDHASDQL [CTBP1, Q13363] | below the threshold |
| GSSSKEGTSV [RRBP1, Q9P2E9] | below the threshold |

molecular target: T2, SHANK1, Q9Y566; assay: holdup assay; design: key: below the threshold = too weak to quantify, mostly under pKd 3.1 to 4; settings: plain residues with an end cap or a label only (N-terminal biotin on a linker: ado-ado)

| Binder | pKd |
| --- | --- |
| ADRDHASDQL [CTBP1, Q13363] | below the threshold |
| GSSSKEGTSV [RRBP1, Q9P2E9] | below the threshold |

molecular target: T3, NHERF3_4, Q5T2W1; assay: holdup assay; design: key: below the threshold = too weak to quantify, mostly under pKd 3.1 to 4; settings: plain residues with an end cap or a label only (N-terminal biotin on a linker: ado-ado)

| Binder | pKd |
| --- | --- |
| ADRDHASDQL [CTBP1, Q13363] | below the threshold |
| GSSSKEGTSV [RRBP1, Q9P2E9] | below the threshold |

molecular target: Inadl_8, Q8NI35; assay: holdup assay; design: key: below the threshold = too weak to quantify, mostly under pKd 3.1 to 4; settings: plain residues with an end cap or a label only (N-terminal biotin on a linker: ado-ado)
Sequence (Q8NI35 1425-1530): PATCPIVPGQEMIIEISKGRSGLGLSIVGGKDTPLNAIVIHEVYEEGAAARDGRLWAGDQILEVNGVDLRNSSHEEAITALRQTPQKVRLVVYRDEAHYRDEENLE

| Binder | pKd |
| --- | --- |
| ADRDHASDQL [CTBP1, Q13363] | below the threshold |
| GSSSKEGTSV [RRBP1, Q9P2E9] | 3.91 |

molecular target: SCRIB_2, Q14160; assay: holdup assay; design: key: below the threshold = too weak to quantify, mostly under pKd 3.1 to 4; settings: plain residues with an end cap or a label only (N-terminal biotin on a linker: ado-ado)
Sequence (Q14160 857-960): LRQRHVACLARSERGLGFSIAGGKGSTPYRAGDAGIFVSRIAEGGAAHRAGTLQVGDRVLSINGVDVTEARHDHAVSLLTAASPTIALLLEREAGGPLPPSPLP

| Binder | pKd |
| --- | --- |
| ADRDHASDQL [CTBP1, Q13363] | below the threshold |
| GSSSKEGTSV [RRBP1, Q9P2E9] | 4.11 |

molecular target: MAST1, Q9Y2H9; assay: holdup assay; design: key: below the threshold = too weak to quantify, mostly under pKd 3.1 to 4; settings: plain residues with an end cap or a label only (N-terminal biotin on a linker: ado-ado)
Sequence (Q9Y2H9 962-1065): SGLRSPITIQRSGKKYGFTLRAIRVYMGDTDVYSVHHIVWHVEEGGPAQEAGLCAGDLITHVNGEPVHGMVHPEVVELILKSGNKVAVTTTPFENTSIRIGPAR

| Binder | pKd |
| --- | --- |
| ADRDHASDQL [CTBP1, Q13363] | below the threshold |
| GSSSKEGTSV [RRBP1, Q9P2E9] | 4.32 |

molecular target: GOPC, Q9HD26; assay: holdup assay; design: key: below the threshold = too weak to quantify, mostly under pKd 3.1 to 4; settings: plain residues with an end cap or a label only (N-terminal biotin on a linker: ado-ado)

| Binder | pKd |
| --- | --- |
| ADRDHASDQL [CTBP1, Q13363] | below the threshold |
| GSSSKEGTSV [RRBP1, Q9P2E9] | 3.62 |

molecular target: T4, DLG3_2, Q92796; assay: holdup assay; design: key: below the threshold = too weak to quantify, mostly under pKd 3.1 to 4; settings: plain residues with an end cap or a label only (N-terminal biotin on a linker: ado-ado)

| Binder | pKd |
| --- | --- |
| ADRDHASDQL [CTBP1, Q13363] | below the threshold |
| GSSSKEGTSV [RRBP1, Q9P2E9] | 3.78 |

molecular target: T5, APBA2_1, Q99767; assay: holdup assay; design: key: below the threshold = too weak to quantify, mostly under pKd 3.1 to 4; settings: plain residues with an end cap or a label only (N-terminal biotin on a linker: ado-ado)

| Binder | pKd |
| --- | --- |
| ADRDHASDQL [CTBP1, Q13363] | below the threshold |
| GSSSKEGTSV [RRBP1, Q9P2E9] | below the threshold |

molecular target: T6, MPDZ_12, O75970; assay: holdup assay; design: key: below the threshold = too weak to quantify, mostly under pKd 3.1 to 4; settings: plain residues with an end cap or a label only (N-terminal biotin on a linker: ado-ado)

| Binder | pKd |
| --- | --- |
| ADRDHASDQL [CTBP1, Q13363] | below the threshold |
| GSSSKEGTSV [RRBP1, Q9P2E9] | below the threshold |

molecular target: MAST2, Q6P0Q8; assay: holdup assay; design: key: below the threshold = too weak to quantify, mostly under pKd 3.1 to 4; settings: plain residues with an end cap or a label only (N-terminal biotin on a linker: ado-ado)
Sequence (Q6P0Q8 1099-1202): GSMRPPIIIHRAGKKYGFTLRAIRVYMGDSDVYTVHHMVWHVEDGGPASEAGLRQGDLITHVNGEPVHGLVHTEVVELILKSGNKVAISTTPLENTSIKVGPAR

| Binder | pKd |
| --- | --- |
| ADRDHASDQL [CTBP1, Q13363] | below the threshold |
| GSSSKEGTSV [RRBP1, Q9P2E9] | 4.75 |

molecular target: PARD3_3, Q8TEW0; assay: holdup assay; design: key: below the threshold = too weak to quantify, mostly under pKd 3.1 to 4; settings: plain residues with an end cap or a label only (N-terminal biotin on a linker: ado-ado)
Sequence (Q8TEW0 582-685): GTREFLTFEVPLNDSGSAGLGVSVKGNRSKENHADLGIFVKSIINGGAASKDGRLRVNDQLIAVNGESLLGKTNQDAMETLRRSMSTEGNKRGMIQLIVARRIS

| Binder | pKd |
| --- | --- |
| ADRDHASDQL [CTBP1, Q13363] | below the threshold |
| GSSSKEGTSV [RRBP1, Q9P2E9] | below the threshold |

molecular target: T7, SNTG2, Q9NY99; assay: holdup assay; design: key: below the threshold = too weak to quantify, mostly under pKd 3.1 to 4; settings: plain residues with an end cap or a label only (N-terminal biotin on a linker: ado-ado)

| Binder | pKd |
| --- | --- |
| ADRDHASDQL [CTBP1, Q13363] | below the threshold |
| GSSSKEGTSV [RRBP1, Q9P2E9] | 3.59 |

molecular target: FRMPD2_1, Q68DX3; assay: holdup assay; design: key: below the threshold = too weak to quantify, mostly under pKd 3.1 to 4; settings: plain residues with an end cap or a label only (N-terminal biotin on a linker: ado-ado)
Sequence (Q68DX3 770-861): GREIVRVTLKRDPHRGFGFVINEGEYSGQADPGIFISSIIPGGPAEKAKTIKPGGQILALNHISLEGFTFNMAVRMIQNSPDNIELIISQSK

| Binder | pKd |
| --- | --- |
| ADRDHASDQL [CTBP1, Q13363] | below the threshold |
| GSSSKEGTSV [RRBP1, Q9P2E9] | below the threshold |

molecular target: T8, DLG3_1, Q92796; assay: holdup assay; design: key: below the threshold = too weak to quantify, mostly under pKd 3.1 to 4; settings: plain residues with an end cap or a label only (N-terminal biotin on a linker: ado-ado)

| Binder | pKd |
| --- | --- |
| ADRDHASDQL [CTBP1, Q13363] | below the threshold |
| GSSSKEGTSV [RRBP1, Q9P2E9] | 3.69 |

molecular target: GRIP2_4, Q9C0E4; assay: holdup assay; design: key: below the threshold = too weak to quantify, mostly under pKd 3.1 to 4; settings: plain residues with an end cap or a label only (N-terminal biotin on a linker: ado-ado)
Sequence (Q9C0E4 446-548): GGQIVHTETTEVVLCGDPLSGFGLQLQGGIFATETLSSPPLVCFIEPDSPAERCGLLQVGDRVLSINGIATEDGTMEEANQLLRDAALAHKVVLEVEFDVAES

| Binder | pKd |
| --- | --- |
| ADRDHASDQL [CTBP1, Q13363] | below the threshold |
| GSSSKEGTSV [RRBP1, Q9P2E9] | below the threshold |

molecular target: LNX1_2, Q8TBB1; assay: holdup assay; design: key: below the threshold = too weak to quantify, mostly under pKd 3.1 to 4; settings: plain residues with an end cap or a label only (N-terminal biotin on a linker: ado-ado)
Sequence (Q8TBB1 371-470): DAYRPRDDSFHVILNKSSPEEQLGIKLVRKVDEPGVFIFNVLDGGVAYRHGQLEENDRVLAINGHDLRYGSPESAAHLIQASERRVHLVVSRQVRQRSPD

| Binder | pKd |
| --- | --- |
| ADRDHASDQL [CTBP1, Q13363] | below the threshold |
| GSSSKEGTSV [RRBP1, Q9P2E9] | 3.49 |

molecular target: Inadl_6, Q8NI35; assay: holdup assay; design: key: below the threshold = too weak to quantify, mostly under pKd 3.1 to 4; settings: plain residues with an end cap or a label only (N-terminal biotin on a linker: ado-ado)
Sequence (Q8NI35 1058-1167): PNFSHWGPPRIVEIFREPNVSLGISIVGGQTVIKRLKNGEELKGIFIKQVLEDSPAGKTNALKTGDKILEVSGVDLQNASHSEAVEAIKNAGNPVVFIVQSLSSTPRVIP

| Binder | pKd |
| --- | --- |
| ADRDHASDQL [CTBP1, Q13363] | below the threshold |
| GSSSKEGTSV [RRBP1, Q9P2E9] | below the threshold |

molecular target: SCRIB_1, Q14160; assay: holdup assay; design: key: below the threshold = too weak to quantify, mostly under pKd 3.1 to 4; settings: plain residues with an end cap or a label only (N-terminal biotin on a linker: ado-ado)
Sequence (Q14160 718-814): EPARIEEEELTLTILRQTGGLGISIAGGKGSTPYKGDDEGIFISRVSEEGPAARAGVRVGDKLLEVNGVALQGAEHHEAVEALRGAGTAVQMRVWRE

| Binder | pKd |
| --- | --- |
| ADRDHASDQL [CTBP1, Q13363] | below the threshold |
| GSSSKEGTSV [RRBP1, Q9P2E9] | below the threshold |

molecular target: T9, PARD3B_1, Q8TEW8; assay: holdup assay; design: key: below the threshold = too weak to quantify, mostly under pKd 3.1 to 4; settings: plain residues with an end cap or a label only (N-terminal biotin on a linker: ado-ado)

| Binder | pKd |
| --- | --- |
| ADRDHASDQL [CTBP1, Q13363] | below the threshold |
| GSSSKEGTSV [RRBP1, Q9P2E9] | below the threshold |

molecular target: LIMK2, P53671; assay: holdup assay; design: key: below the threshold = too weak to quantify, mostly under pKd 3.1 to 4; settings: plain residues with an end cap or a label only (N-terminal biotin on a linker: ado-ado)
Sequence (P53671 143-248): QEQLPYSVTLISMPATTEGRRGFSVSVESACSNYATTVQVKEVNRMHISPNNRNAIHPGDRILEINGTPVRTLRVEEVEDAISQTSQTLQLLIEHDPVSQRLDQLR

| Binder | pKd |
| --- | --- |
| ADRDHASDQL [CTBP1, Q13363] | below the threshold |
| GSSSKEGTSV [RRBP1, Q9P2E9] | below the threshold |

molecular target: LNX1_1, Q8TBB1; assay: holdup assay; design: key: below the threshold = too weak to quantify, mostly under pKd 3.1 to 4; settings: plain residues with an end cap or a label only (N-terminal biotin on a linker: ado-ado)
Sequence (Q8TBB1 261-371): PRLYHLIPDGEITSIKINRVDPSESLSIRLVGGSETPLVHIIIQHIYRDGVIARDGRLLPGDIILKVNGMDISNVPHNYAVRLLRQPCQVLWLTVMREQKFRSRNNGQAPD

| Binder | pKd |
| --- | --- |
| ADRDHASDQL [CTBP1, Q13363] | below the threshold |
| GSSSKEGTSV [RRBP1, Q9P2E9] | below the threshold |

molecular target: IL16_3, Q14005; assay: holdup assay; design: key: below the threshold = too weak to quantify, mostly under pKd 3.1 to 4; settings: plain residues with an end cap or a label only (N-terminal biotin on a linker: ado-ado)
Sequence (Q14005 1107-1207): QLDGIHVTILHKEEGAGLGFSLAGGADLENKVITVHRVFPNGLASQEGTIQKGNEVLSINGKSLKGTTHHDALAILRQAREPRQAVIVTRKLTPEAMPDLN

| Binder | pKd |
| --- | --- |
| ADRDHASDQL [CTBP1, Q13363] | below the threshold |
| GSSSKEGTSV [RRBP1, Q9P2E9] | below the threshold |

molecular target: T10, RHPN1, Q8TCX5; assay: holdup assay; design: key: below the threshold = too weak to quantify, mostly under pKd 3.1 to 4; settings: plain residues with an end cap or a label only (N-terminal biotin on a linker: ado-ado)

| Binder | pKd |
| --- | --- |
| ADRDHASDQL [CTBP1, Q13363] | below the threshold |
| GSSSKEGTSV [RRBP1, Q9P2E9] | 3.49 |
